± gives the standard deviation of the averaged measurements.
Each sequence was assayed on Saccharomyces cerevisiae (assay: protein stability index of tFT-peptide fusion (C-terminal peptide) (PSI (0-1 scale)); higher = more stable (slower turnover)). Conditions: genetic background: wild type; temperature: 30 C.
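Further: PSI is a weighted mean of sequencing reads over stability bins, variants kept only with over 10 reads, mCherry proximal and sfGFP distal, peptide attached via GGGS linker.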

VCRRSVLHSCWS and VCRTLAPCIRWR are within error of each other in protein stability index: 0.678 ± 0.0097 for the first, 0.633 ± 0.063 for the second.

Compared with VCSLSCVGIWYW, VCTRACFLFAYP is lower in protein stability index: 0.625 ± 0.0039 for the first, 0.582 ± 0.015 for the second.

VDCYIFPGIGAL and VDHWVCWCGGWV are within error of each other in protein stability index: 0.701 ± 0.041 for the first, 0.731 ± 0.0098 for the second.

First: VDINYVIGRIRS
Second: VDRAFVWYLRDL
The protein stability index of the first is lower: 0.642 ± 0.0087 for the first, 0.695 ± 0.0076 for the second.

VDRDWFLKRDSH and VDTTISVCCSVC are within error of each other in protein stability index: 0.711 ± 0.031 for the first, 0.68339 ± 0.00029 for the second.

VDVSGIKAGRPW and VEAFIVDETRVV are within error of each other in protein stability index: 0.681 ± 0.011 for the first, 0.6984 ± 0.0064 for the second.

VEAGDYAWDEAA and VECVPFAPPRPH are within error of each other in protein stability index: 0.657 ± 0.056 for the first, 0.68 ± 0.14 for the second.

VEEKDNNVRYVL and VEHVRIGGGGKS are within error of each other in protein stability index: 0.697 ± 0.025 for the first, 0.7 ± 0.013 for the second.

Compared with VEQISYATIAFV, VERIALIPASRQ is higher in protein stability index: 0.608 ± 0.061 for the first, 0.706 ± 0.035 for the second.

VERRNAVGTDEK and VEVCLLRRWFGL are within error of each other in protein stability index: 0.611 ± 0.063 for the first, 0.667 ± 0.055 for the second.

Going from VEWGGDGVFWTG to VFALFRLSSLDK, the protein stability index falls from 0.8 ± 0.023 to 0.673 ± 0.074.

VFALPPAPPPSP and VFCPGWRKCNDP are within error of each other in protein stability index: 0.722 ± 0.062 for the first, 0.661 ± 0.043 for the second.

VFEVNPRFDKLV and VFFCHFRFTPPS are within error of each other in protein stability index: 0.758 ± 0.016 for the first, 0.692 ± 0.059 for the second.

VFFDLALRWYGV and VFGDFAIGGLSG are within error of each other in protein stability index: 0.748 ± 0.082 for the first, 0.711 ± 0.077 for the second.

Going from VFGLSPLLQPSD to VFGRHSNRSPLY, the protein stability index rises from 0.654 ± 0.0086 to 0.808 ± 0.07.

First: VFLGCCWVHFFY
Second: VFLILKPRDLTE
The protein stability index of the first is lower: 0.534 ± 0.0062 for the first, 0.667 ± 0.01 for the second.

VFLSITHFESRV and VFPIISYPHTKS are within error of each other in protein stability index: 0.723 ± 0.055 for the first, 0.6779 ± 0.0064 for the second.

VFPPRPPRAFPP and VFPYGVSRGALL are within error of each other in protein stability index: 0.662 ± 0.00098 for the first, 0.66 ± 0.011 for the second.

VFRFRARRYNES and VFSFFNFCFCFY are within error of each other in protein stability index: 0.655 ± 0.079 for the first, 0.615 ± 0.06 for the second.

Compared with VFSTRLTSWYLT, VFVGCRECKLCA is higher in protein stability index: 0.555 ± 0.01 for the first, 0.57592 ± 7.6e-05 for the second.

First: VFVLEGSSTPRS
Second: VFVRSTSFLFFG
The protein stability index of the first is lower: 0.6487 ± 0.0011 for the first, 0.678 ± 0.0097 for the second.

VGAAVFGARWGA and VGACLEVWDGVR are within error of each other in protein stability index: 0.689 ± 0.037 for the first, 0.686 ± 0.024 for the second.

VGAEGWAVAGDM and VGAGGSLPLNKV are within error of each other in protein stability index: 0.77 ± 0.078 for the first, 0.6928 ± 0.0062 for the second.

First: VGAPGGVETTKA
Second: VGARAIITIEFG
The protein stability index of the first is higher: 0.685 ± 0.015 for the first, 0.598 ± 0.018 for the second.

Going from VGASFVAVGVEG to VGAWGLMLASVV, the protein stability index falls from 0.641 ± 0.041 to 0.5698 ± 0.0055.

Going from VGAWRGVLVGGG to VGCFLDSLWDWV, the protein stability index rises from 0.612 ± 0.0068 to 0.679 ± 0.022.

Going from VGCGCVRGYWFG to VGCPKMTKIFFV, the protein stability index falls from 0.734 ± 0.018 to 0.594 ± 0.028.

Compared with VGCVFVASRLVL, VGCWLLGYFAHQ is higher in protein stability index: 0.627 ± 0.038 for the first, 0.675 ± 0.0095 for the second.

VGDGAVGKTRGD and VGDVGESMWGLG are within error of each other in protein stability index: 0.681 ± 0.039 for the first, 0.727 ± 0.091 for the second.

VGEGWGAMIMQE and VGEGWWQKGMEV are within error of each other in protein stability index: 0.737 ± 0.038 for the first, 0.676 ± 0.079 for the second.

VGEVLCVGGAFY and VGFISRIKSLYV are within error of each other in protein stability index: 0.659 ± 0.024 for the first, 0.648 ± 0.0096 for the second.

VGGCRVLCVGLG and VGGGCGVRVVVV are within error of each other in protein stability index: 0.651 ± 0.06 for the first, 0.684 ± 0.05 for the second.

VGGGEVRAWGLR and VGGGGGGCLVDC are within error of each other in protein stability index: 0.661 ± 0.008 for the first, 0.653 ± 0.028 for the second.

VGGGVGGRDGAS and VGGRGGGRGVVG are within error of each other in protein stability index: 0.659 ± 0.051 for the first, 0.672 ± 0.0073 for the second.

VGGRLRECVRVG and VGGRVGERRGAP are within error of each other in protein stability index: 0.628 ± 0.078 for the first, 0.656 ± 0.044 for the second.

VGGVWGGGWGHW and VGGWGGFGLFFP are within error of each other in protein stability index: 0.736 ± 0.021 for the first, 0.742 ± 0.098 for the second.

First: VGIGLTLSLRFS
Second: VGLGEWMGALGV
The protein stability index of the first is lower: 0.598 ± 0.0066 for the first, 0.6634 ± 0.006 for the second.

VGLGFVVNAPGL and VGLRPPRPAPPS are within error of each other in protein stability index: 0.73 ± 0.1 for the first, 0.623 ± 0.035 for the second.

First: VGMCVGEVVAIV
Second: VGPDGFWGVVLG
The protein stability index of the first is lower: 0.521 ± 0.015 for the first, 0.719 ± 0.023 for the second.

VGPVGSVGVGGR and VGPWQVQRLLWT are within error of each other in protein stability index: 0.654 ± 0.013 for the first, 0.623 ± 0.056 for the second.

Compared with VGRLGPMVGLLL, VGRRDNHPTEKT is higher in protein stability index: 0.6 ± 0.083 for the first, 0.73 ± 0.025 for the second.

VGRRTRGHDGVT and VGSGEVFEVMEG are within error of each other in protein stability index: 0.659 ± 0.078 for the first, 0.64 ± 0.036 for the second.

VGSSSRSLFWCF and VGSWSVICGGVL are within error of each other in protein stability index: 0.689 ± 0.04 for the first, 0.6929 ± 0.0061 for the second.

VGTGPGLKRPCH and VGVEIKITKEKK are within error of each other in protein stability index: 0.774 ± 0.035 for the first, 0.739 ± 0.038 for the second.

First: VGVGPVGDVWLI
Second: VGWRCWVGSVGL
The protein stability index of the first is higher: 0.6979 ± 0.0027 for the first, 0.6686 ± 0.0029 for the second.

First: VGYGRGGAVGVE
Second: VHLCLPPLPLHT
The protein stability index of the first is higher: 0.695 ± 0.012 for the first, 0.651 ± 0.019 for the second.

Going from VHPHPRSIKRER to VIARALGLFLSD, the protein stability index rises from 0.6324 ± 0.0026 to 0.693 ± 0.035.

VIEIGEYSGNGK and VIFFLPWYTPHP are within error of each other in protein stability index: 0.707 ± 0.046 for the first, 0.6919 ± 0.0023 for the second.

First: VIGSKQERRAEK
Second: VIGWSGGCRWSV
The protein stability index of the first is lower: 0.6905 ± 0.0016 for the first, 0.73 ± 0.027 for the second.

VIKESKKKTKKI and VIPYLISSLYAV are within error of each other in protein stability index: 0.544 ± 0.044 for the first, 0.691 ± 0.13 for the second.

VIRDISAFSQVV and VKGRKNEGPGKR are within error of each other in protein stability index: 0.677 ± 0.07 for the first, 0.748 ± 0.065 for the second.

Compared with VKGYGLILQISV, VKKHRQTNGMVY is higher in protein stability index: 0.56537 ± 0.00043 for the first, 0.739 ± 0.018 for the second.

First: VKVYHVPSTFSV
Second: VLCGALRIVGHK
The protein stability index of the first is higher: 0.681 ± 0.029 for the first, 0.603 ± 0.017 for the second.

Going from VLCKDGHRGFGC to VLCLRSNRHGVF, the protein stability index rises from 0.589 ± 0.057 to 0.698 ± 0.015.

VLCRVALWGVGG and VLEGAWPGAEAV are within error of each other in protein stability index: 0.653 ± 0.02 for the first, 0.722 ± 0.083 for the second.

VLFCQLFCDFFG and VLFGLFAPCFLF are within error of each other in protein stability index: 0.631 ± 0.084 for the first, 0.59 ± 0.019 for the second.

VLFGSVSCCLLW and VLFLLSGPAILL are within error of each other in protein stability index: 0.686 ± 0.043 for the first, 0.682 ± 0.0075 for the second.

Compared with VLFSSDLIVPQL, VLGGLGWVCWVV is lower in protein stability index: 0.725 ± 0.018 for the first, 0.531 ± 0.013 for the second.

VLGLALYTLSTS and VLLAVGELFRVD are within error of each other in protein stability index: 0.68 ± 0.041 for the first, 0.649 ± 0.0084 for the second.

Compared with VLLEGCQSYVIW, VLLLGYDRGWDD is higher in protein stability index: 0.652 ± 0.03 for the first, 0.718 ± 0.015 for the second.

VLLLLPASTPSL and VLMGAGGHSWER are within error of each other in protein stability index: 0.696 ± 0.079 for the first, 0.725 ± 0.037 for the second.

Going from VLNCVGLSLLVE to VLPPLPGPPTLS, the protein stability index rises from 0.6068 ± 0.00076 to 0.6945 ± 0.0033.

First: VLPPPRHPLPRP
Second: VLSCCTAVAYPF
The protein stability index of the first is higher: 0.698 ± 0.04 for the first, 0.593 ± 0.028 for the second.

VLSLLPSLLPPF and VLSSSPFLHFGC are within error of each other in protein stability index: 0.7408 ± 0.0061 for the first, 0.663 ± 0.072 for the second.

VLSVGQVGRCVS and VLTWGLLGRSAF are within error of each other in protein stability index: 0.642 ± 0.043 for the first, 0.729 ± 0.063 for the second.

VLYCYPYLVLPP and VNATDYDGQPIT are within error of each other in protein stability index: 0.678 ± 0.013 for the first, 0.679 ± 0.11 for the second.

First: VNENNQKGNKKT
Second: VNIHVCSYGIFA
The protein stability index of the first is higher: 0.654 ± 0.12 for the first, 0.5071 ± 0.0025 for the second.

Compared with VNKNKKNVEYIK, VNQVRVSICDLL is higher in protein stability index: 0.657 ± 0.013 for the first, 0.69263 ± 0.00047 for the second.

Going from VPCLVHEVYDEV to VPFPHALLSALP, the protein stability index falls from 0.732 ± 0.029 to 0.638 ± 0.037.

VPGIGGGVSVRG and VPLCSGKLAQIS are within error of each other in protein stability index: 0.612 ± 0.14 for the first, 0.757 ± 0.0085 for the second.

Going from VPLPPPFPASLT to VPPHSLPPPTHP, the protein stability index rises from 0.61 ± 0.027 to 0.753 ± 0.048.

VPPPPPSRSRPV and VPPPTRRTPPAP are within error of each other in protein stability index: 0.713 ± 0.032 for the first, 0.734 ± 0.052 for the second.

Compared with VPPVLRPLPPSP, VPRFTPYRAIFP is lower in protein stability index: 0.72 ± 0.025 for the first, 0.591 ± 0.016 for the second.

VPRTPPTTSWFP and VPSPHLQPTVSP are within error of each other in protein stability index: 0.682 ± 0.026 for the first, 0.654 ± 0.0074 for the second.

VPTELGGTLIPT and VPVRLRSGGVSP are within error of each other in protein stability index: 0.664 ± 0.11 for the first, 0.66 ± 0.058 for the second.

First: VPVVQPNRSALI
Second: VQQSRTQKDQHV
The protein stability index of the first is higher: 0.7454 ± 0.0071 for the first, 0.623 ± 0.054 for the second.

Going from VQRPALPPRHPP to VRARRSSREVNY, the protein stability index rises from 0.612 ± 0.005 to 0.755 ± 0.05.

VRCCFGGRGGRA and VRCGGRGRAGKG are within error of each other in protein stability index: 0.637 ± 0.035 for the first, 0.634 ± 0.03 for the second.

VRCWEDGFLDSS and VREMMGFWFVPL are within error of each other in protein stability index: 0.7293 ± 0.0042 for the first, 0.691 ± 0.11 for the second.

VRFPCGFCKKLS and VRFYVFSFSNWL are within error of each other in protein stability index: 0.637 ± 0.036 for the first, 0.586 ± 0.031 for the second.
